The record followed here is PMC5030355.

Some results are limits rather than exact numbers.

The data set concerns RIG-I (recombinant). Put plainly: filter binding. Conditions: 25 mM Tris-HCl pH 7.5, 150 mM NaCl, 1.5 mM MgCl2, room temperature, filter binding with 600 nM BSA, 30 min, pull-down in lysate with 0.5% Triton X-100.

Regarding polyU/UC RNA 2'FdU, the Kd (2'-fluoro-deoxyuridine substituted for U) amounted to 29 nM.
In the case of polyU/UC RNA canonical, the Kd stood at 186 nM.
For the substance polyU/UC RNA m6A, the equilibrium dissociation constant (Kd) (N6-methyladenosine substituted for A) was > 1070 nM.
For the substance polyU/UC RNA pseudouridine, the Kd (pseudouridine substituted for U) is 255 nM.
